Molecular target: M. tuberculosis MmpL5 Δ494-688 with C-terminal GFP-FLAG tag (M. tuberculosis) (UniProt P9WJV1)
Experiment: cryo-EM structure

M. tuberculosis MmpL5 Δ494-688 with C-terminal GFP-FLAG tag (from UniProt P9WJV1 1-964) (natural protein)
stoichiometry N: 3
